Source: patent publication US20250304643A1 (BAINAN BIOTECH, published 2025)
[ ]: non-standard residue; d: D form. The star is where a group is joined. Palmitoyl = CCCCCCCCCCCCCCCC(=O)*; Aib = CC(C)(N)C(=O)O

Target: macaque GLP-2R (macaque)
Assay: cell-based or functional assay

Efficacy (%): 120%
B1: Compound no. 5 (peptide)
peptide: Palmitoyl-H[Aib]DGTFISDYST[Aib]LDNLAARDFINWLIQTKITK-OH
SMILES: CCCCCCCCCCCCCCCC(=O)N[C@@H](Cc1c[nH]cn1)C(=O)NC(C)(C)C(=O)N[C@@H](CC(=O)O)C(=O)NCC(=O)N[C@H](C(=O)N[C@@H](Cc1ccccc1)C(=O)N[C@H](C(=O)N[C@@H](CO)C(=O)N[C@@H](CC(=O)O)C(=O)N[C@@H](Cc1ccc(O)cc1)C(=O)N[C@@H](CO)C(=O)N[C@H](C(=O)NC(C)(C)C(=O)N[C@@H](CC(C)C)C(=O)N[C@@H](CC(=O)O)C(=O)N[C@@H](CC(N)=O)C(=O)N[C@@H](CC(C)C)C(=O)N[C@@H](C)C(=O)N[C@@H](C)C(=O)N[C@@H](CCCNC(=N)N)C(=O)N[C@@H](CC(=O)O)C(=O)N[C@@H](Cc1ccccc1)C(=O)N[C@H](C(=O)N[C@@H](CC(N)=O)C(=O)N[C@@H](Cc1c[nH]c2ccccc12)C(=O)N[C@@H](CC(C)C)C(=O)N[C@H](C(=O)N[C@@H](CCC(N)=O)C(=O)N[C@H](C(=O)N[C@@H](CCCCN)C(=O)N[C@H](C(=O)N[C@H](C(=O)N[C@@H](CCCCN)C(=O)O)[C@@H](C)O)[C@@H](C)CC)[C@@H](C)O)[C@@H](C)CC)[C@@H](C)CC)[C@@H](C)O)[C@@H](C)CC)[C@@H](C)O
